# Results: US9447157B2, “Nitration shielding peptides and methods of use thereof” (Augusta University Research Institute, Inc., priority 2013, dated 2016)
# Entries after “also recorded” stand apart in the source; their conditions may differ. No end group written: not given here. *: point of attachment. X1 = 3‑carboxy‑2,2,5,5‑tetramethyl‑3‑pyrrolin‑1‑yloxy, CC1(C)C=C(C(=O)*)C(C)(C)N1[O]
# How the values were obtained:
# RhoA [1] = biological target: T1, RhoA (Homo sapiens, UniProt P61586); assay: Stopped-flow kinetic analysis of mant-GDP/mant-GTP binding to RhoA; set-up: polyHis (6His); made in house; host or cells: Escherichia coli BL21; Binding constant of GDP to RhoA / GTP binding constant of RhoA: unit not given here; conditions: stop-flow, RhoA with or without peroxynitrite (100 μM, 30 min); for Binding constant of GDP to RhoA: mant-GDP; for GTP binding constant of RhoA: mant-GTP
# T1 sequence (P61586 whole entry): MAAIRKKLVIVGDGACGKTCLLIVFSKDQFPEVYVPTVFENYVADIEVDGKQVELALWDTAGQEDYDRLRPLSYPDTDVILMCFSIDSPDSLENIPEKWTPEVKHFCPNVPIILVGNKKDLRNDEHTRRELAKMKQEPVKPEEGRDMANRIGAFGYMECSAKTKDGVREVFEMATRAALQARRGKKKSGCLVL
# Procedure: RhoA was treated with authentic peroxynitrite (500 μM, 30 min) to induce tyrosine nitration in buffered solution. For kinetic analyses, 2 μM of either mart-GTP or -GDP was mixed with RhoA (0.1 μM) in a stopped-flow instrument (SX-20, […]). Increases in fluorescent intensity mant-nucleotide binding to RhoA were then measured using excitation 350 nm and cutoff filter 395 nm for 0.2-1 second. Acquired kinetic curves for 3-5 experiments were averaged and fitted using the Pro-kineticist software to determine observed binding constants.
# To test the validity of the MD data kinetic studies were performed. His-tagged human RhoA construct was expressed in the Escherichia con BL21 strain. First, the bacterial lysate was purified by 6His-tag affinity on a Ni-NTA column. Second, the proteins in the elution fraction from the affinity purification were separated by size-exclusion chromatography (FIG. 11). The fraction containing RhoA was identified both by Coomassie blue staining and Western blot analysis. The recombinant purified RhoA was subjected to rapid flow kinetics to evaluate GDP and GTP binding using fluorescently labeled guanine nucleotides. Peroxynitrite decreases GDP binding to purified RhoA. Human recombinant RhoA was exposed to authentic peroxynitrite (100 μM, 30 min) on ice. The kinetics of binding fluorescently labeled GDP (FIG. 12A) or GTP (FIG. 12B) to RhoA was then performed using stop-flow analysis. Three measurements were averaged and fitted with bimolecular reaction equation. […] However, nitration of RhoA had no effect on the GTP binding constant ([…]).
# RhoA [2] = biological target: T1, RhoA; assay: Biotin pull down assay of peptide binding to RhoA; set-up: polyHis (6His); made in house; host or cells: Escherichia coli BL21; conditions: peptide 100 ng/ml, recombinant human RhoA 0.1 mg
# Procedure: To evaluate the ability of each peptide to bind to RhoA each peptide (100 ng/ml) was mixed with recombinant human RhoA (0.1 mg) for the biotin pull down assay.
# RhoA [3] = biological target: T2, RhoA (Mus musculus, UniProt Q9QUI0); assay: RhoA activity, nitration and protein in lungs of LPS treated mice; type: in vivo
# T2 construct: from tissue; host or cells: mouse lung (male C57Bl/6)
# T2 sequence (Q9QUI0 whole entry): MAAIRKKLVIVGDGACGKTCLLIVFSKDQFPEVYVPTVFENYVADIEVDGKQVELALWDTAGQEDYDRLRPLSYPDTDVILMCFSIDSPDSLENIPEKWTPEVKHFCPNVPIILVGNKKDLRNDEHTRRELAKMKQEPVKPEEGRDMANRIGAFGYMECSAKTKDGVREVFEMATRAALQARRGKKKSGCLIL
# Procedure: The Committee on Animal Research at Georgia Regents University approved all animal protocols and procedures. Stock solutions of Escherichia coli LPS (0111:B4) were prepared in saline. […] Mice were examined 24 h after LPS treatment. At the end of the treatment lungs were flushed with 3 ml of ice-cold PBS (5 mM EDTA), excised, dipped in saline and blotted dry. A portion of the lung was quickly snap-frozen in liquid nitrogen, crushed to powder in a pre-chilled mortar and stored at -80° C. The remaining lung tissue was stored at -80° C. […] After 24 h, mice were sacrificed and lung tissue was obtained to determine RhoA activity and RhoA nitration, LPS induced RhoA activation in the mouse lung as in HLMVEC (FIG. 7A). […] Total RhoA protein levels and basal RhoA nitration were measured. […] Likewise, basal RhoA nitration levels (FIG. 7D) were unchanged.
# HLMVEC = assay: Total protein nitration (3-NT/β-actin) in LPS-treated HLMVEC; type: cell-based, human; conditions: peptide 100 ng/ml 30 min, then LPS 1 EU/ml
# Text: Cell extracts were separated on 4-20% gels and electrophoretically transferred to PVDF membrane (Bio-Rad), then blocked with 5% nonfat dry milk in Tris-buffered saline. The membranes were probed with antibodies to RhoA (Cell Signaling), eNOS (BD), iNOS (Cell Signaling), or 3-Nitrotyrosine (Calbiochem). Reactive bands were visualized using chemi-luminescence (Pierce) on a Kodak 440CF image station. Band intensity was quantified using Kodak 1D image processing software. Protein loading was normalized by re-probing with mouse anti-β-actin.
# [4] = system: human lung microvascular endothelial cells (HLMVEC); assay: Endothelial monolayer resistance (ECIS, TER) in LPS-challenged HLMVEC; type: cell-based; conditions: for Attenuation of LPS-mediated decrease in transendothelial resistance (TER) / barrier disruption: HLMVEC, LPS 1 EU/ml, MnTMPyP 25 μM, ETU 200 μM, 1400W 100 μM
# Procedure: The electrical resistance of the endothelial cell monolayer was measured with the electrical cell impedance sensor (ECIS) technique. In this system, the cells are cultured on gold plated electrodes. The change in resistance across the monolayer is measured through an amplifier attached to the arrays. Each study was performed when the resistance reached a plateau. The data was normalized to the initial voltage and plotted as a normalized resistance.
# To examine if protein nitration by peroxynitrite is a contributing factor in endothelial barrier disruption in response to LPS, transendothelial resistance (TER) was measured in HLMVEC in the presence or absence of the peroxynitrite scavenger, MnTmPyp. HLMVEC were challenged with LPS (1 EU/ml) in the presence or absence of the peroxynitrite scavenger, MnTMPyP (25 μM).
# To evaluate the role played by NOS in the barrier dysfunction, HLMVEC were exposed to LPS in the presence or absence of ETU (a non-specific NOS inhibitor) or 1400W (to inhibit iNOS). HLMVEC were challenged with LPS (1 EU/ml) in the presence or absence of the general NOS inhibitor, ETU (200 μM) or the iNOS specific inhibitor, 1400W (100 μM). The LPS-mediated decrease in TER was attenuated in the presence of ETU, but not 1400W (FIG. 1B). The important role of eNOS was then confirmed using a siRNA approach. HLMVEC were transiently transfected with a siRNA against eNOS or a scrambled control siRNA. After 48 h, there was a significant knockdown of eNOS protein levels (50%), as determined by Western blotting. Reducing eNOS protein levels preserved HLMVEC barrier function when challenged with LPS (FIG. 1C).
# RhoA [5] = biological target: T1, RhoA; assay: RhoA nitration, immunoprecipitation and 3-NT blot, in LPS-treated HLMVEC; type: cell-based; set-up: endogenous in cells; host or cells: HLMVEC (human lung microvascular endothelial cells); conditions: MnTMPyP, LPS 1 EU/ml 4 h
# Text: HLMVEC were lysed and centrifuged at 6,000×g and the supernatant collected as previously described (Sud, N., et al., Am. J. Physiol. Lung Cell Mol. Physiol. 293, L1444-1453 (2007); Sharma, S., et al., Am. J. Physiol. Lung Cell Mol. Physiol. 294, L46-56 (2008)). Cell extracts were separated on 4-20% gels and electrophoretically transferred to PVDF membrane (Bio-Rad), then blocked with 5% nonfat dry milk in Tris-buffered saline. The membranes were probed with antibodies to RhoA (Cell Signaling), eNOS (BD), iNOS (Cell Signaling), or 3-Nitrotyrosine (Calbiochem). Reactive bands were visualized using chemi-luminescence (Pierce) on a Kodak 440CF image station. Band intensity was quantified using Kodak 1D image processing software. Protein loading was normalized by re-probing with mouse anti-β-actin.
# HLMVEC were homogenized in IP buffer (25 mM Hepes, pH 7.5, 150 mM NaCl, 1% NP-40, 10 mM MgCl2, 1 mM EDTA, 2% glycerol supplemented with protease inhibitors). To precipitate the bound protein, 10 μl of a protein A/G agarose suspension (EMD/Calbiochem) was added for 2 h at 4° C. The samples were then centrifuged at 14,000 rpm for 5 min, the supernatant removed, and the beads washed 3× with IP buffer. Twenty μl of 2× Laemmli buffer was added, the samples were boiled for 5 min, and analyzed as described above. Immunoprecipitation efficiency was normalized by re-probing with RhoA.
# RhoA [6] = biological target: T1, RhoA; assay: RhoA activity, Rhotekin RBD pull-down, in LPS-treated HLMVEC; type: cell-based; set-up: endogenous in cells; host or cells: HLMVEC (human lung microvascular endothelial cells); conditions: MnTMPyP 25 μM 30 min pre-treatment, LPS 1 EU/ml 4 h
# Procedure: RhoA activity levels were measured using the Rhotekin Rho Binding Domain (RBD) pull-down assay. Briefly, 2×10^6 cells were seeded in 10 cm dishes and incubated overnight in DMEM with 10% FBS and 5% antibiotics. The cells were then pretreated with the peroxynitrite scavenger, MynTMPyp (25 μM), for 30 min. The cells were treated with LPS (1 EU/ml) for 4 h. The level of active RhoA pulled down by the assay was measured by Western blot analysis (see above).
# Recombinant human PKG-Iα = biological target: T3, Recombinant human PKG-Iα (Homo sapiens, UniProt Q13976); assay: PKG-Iα activity assay with SIN-1 and shielding peptide; type: biochemical
# T3 sequence (Q13976 2-671): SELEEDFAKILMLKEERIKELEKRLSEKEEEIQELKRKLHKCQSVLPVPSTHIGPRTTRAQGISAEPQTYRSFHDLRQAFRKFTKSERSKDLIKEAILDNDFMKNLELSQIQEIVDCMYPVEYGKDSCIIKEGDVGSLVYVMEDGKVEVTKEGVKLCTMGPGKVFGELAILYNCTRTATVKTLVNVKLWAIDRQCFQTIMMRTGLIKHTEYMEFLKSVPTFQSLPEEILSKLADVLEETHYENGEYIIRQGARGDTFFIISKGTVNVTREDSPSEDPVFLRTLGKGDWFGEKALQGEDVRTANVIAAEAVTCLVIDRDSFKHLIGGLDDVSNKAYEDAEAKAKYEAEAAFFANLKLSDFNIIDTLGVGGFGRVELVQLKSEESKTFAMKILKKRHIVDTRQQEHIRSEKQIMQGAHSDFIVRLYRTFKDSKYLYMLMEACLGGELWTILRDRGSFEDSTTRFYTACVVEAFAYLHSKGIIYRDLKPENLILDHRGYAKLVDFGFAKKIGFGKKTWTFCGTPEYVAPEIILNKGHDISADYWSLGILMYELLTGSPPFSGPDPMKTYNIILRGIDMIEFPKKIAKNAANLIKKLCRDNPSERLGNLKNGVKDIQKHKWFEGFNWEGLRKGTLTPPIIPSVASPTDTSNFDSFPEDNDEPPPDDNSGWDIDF
# Procedure: A PKG-Iα activity assay was carried out using HLMVEC. Recombinant human PKG-Iα18 was exposed to the peroxynitrite generator, SIN-1 (200 μM, 10 min) with increasing concentrations of the shielding peptide (0-10 μg).
compound,measurement,setting,value
RhoA+ONOO: human recombinant RhoA exposed to authentic peroxynitrite (nitrated),Binding constant of GDP to RhoA,RhoA [1],4.03
same,GTP binding constant of RhoA,RhoA [1],36.2
RhoA: His-tagged human recombinant purified RhoA,Binding constant of GDP to RhoA,RhoA [1],19.8
same,GTP binding constant of RhoA,RhoA [1],38.7
"HRKKRRQRRRQFPVFVPTVF (SEQ ID NO:35) (listed as Homo sapiens) [NipR1F, control peptide in which Y34 was substituted with a phenylalanine residue]",Interaction between RhoA and biotinylated peptide,RhoA [2],strong interaction
same,Basal RhoA nitration levels in mouse lung,"RhoA [3]; peptide alone, no LPS",unchanged
same,Total RhoA protein levels in mouse lung,"RhoA [3]; peptide i.p. 0.1 mg/kg, with or without LPS",Neither peptide nor LPS treatment altered
same,Increase in total protein nitration induced by LPS,HLMVEC,unaffected
CCSC(=N)N [ETU],Attenuation of LPS-mediated decrease in transendothelial resistance (TER) / barrier disruption,[4],attenuated
MnTMPyP,Attenuation of LPS-induced RhoA nitration,RhoA [5],attenuated
same,Attenuation of LPS-induced increase in RhoA activity,RhoA [6],attenuated
same,Attenuation of LPS-mediated decrease in transendothelial resistance (TER) / barrier disruption,[4],significantly attenuated
"GALRQKNVK(X)-amide (SEQ ID NO:29), where X is 3-carboxy-2,2,5,5-tetramethyl-3-pyrrolin-1-yloxy (nitroxide) (GALRQKNVK(X1)-NH2; N-terminus assumed; SMILES CC(C)C[C@H](NC(=O)[C@H](C)NC(=O)CN)C(=O)N[C@@H](CCCNC(=N)N)C(=O)N[C@@H](CCC(N)=O)C(=O)N[C@@H](CCCCN)C(=O)N[C@@H](CC(N)=O)C(=O)N[C@H](C(=O)N[C@@H](CCCCNC(=O)C1=CC(C)(C)N([O])C1(C)C)C(N)=O)C(C)C; listed as Homo sapiens) [shielding peptide]",Barrier function when challenged with LPS,"[4]; in vitro, LPS challenge",preserved
same,PKG-Iα activity against peroxynitrite,"Recombinant human PKG-Iα; SIN-1 200 μM, 10 min, shielding peptide 0-10 μg",preserves; also recorded: dose-dependently preserved
same,Physiologic PKG-Iα activity,Recombinant human PKG-Iα; in vitro,did not alter
